In the DeepSol protein solubility set:

Assay: soluble on expression in E. coli; label from the status in PepcDB or PDB records

Sequence	soluble on expression in E. coli
MSLKITELSRDLTTGLTTATTSIADYFFGNTHHSHHVFYLNLTVLKAKRAAKVENKKFIDLKLIKLTSGNGGNGCVSFFKDNFKPMGPPDGGDGGNGGSIYLNVVDKNITSLHGLQKRYVAKGGQPGKGSQLDGKSGDDIIIDIPLGTIVRWIPDPQDFKKFVSQREGDALNDVFMEFDIDDRDFIQLNRGGYRPGEGWIFKEHDEEYFRDKDFFQDLNEKVTGYDEELLFEESYNDRFPIVGLDCNQVTQKPLLLLRGGKGGLGNMHFLTKEIKGPRFCKMGRPGITANFLLELKLIADLGLVGLPNAGKSSLLRAISKARPRVGHWEFTTLQPTVGTIFTRIDKDPFTVADIPGIIKGASQNKGMGLDFLRHIERSGGLVFVVSLESANPVDDLKILLEEVGPRRMKDKNVLVVATKADLSSEGANFKVLRDYIEHNHSEWKIVPVCAPKGENVERCIKLMSEIAQTKKKEGHHHHHH	soluble
MSLKITNEMQTKAETKIHRTTKVGDPSFQQMVQSQTKQLNQQQFHQLVQQISKQGSKLAQYRSFRELVKFKRMVKSFLDKAVVQGYKLEKSHSFGLQGSRHLSIVKAVDEKLIQLAEDIMDEEKKTVDILGLIGEIKGLLINIYTEGHHHHHH	soluble
MSLKITQIQAQNKNKNRRNVFVDGSYEFSCDMEIILKYKLKEGLEIDRTKLLQVIDQSKEEFAFRLALNYLSFKSRTSFEIYTYLLKKEYEEKIIEKVIEKLKYYRYVDDNQYVLNYIKTALAEGKKGKDRVQSDLINKKIPQDMIESHMHLFSCETNLEIAKELSNKYFKQNAHLPFNQFKNKLSQFLMRKGFNWEIINTCLNILEQDSEVQSHIDSNKELYVKEAIKLGNKYFVKYKAKETNPYLVEHKVKSHLYQKGYDKDTINLAFKKIIENSEGHHHHHH	not soluble
MSLKKFLKMFFPHDGIYEVLVGTSGIKPIIKPLGIIVEANELRSKIYKSTLTYSNLEKNNKCSIHVTLDTTFFILSMLDKLTFSIDSDYNVPVLKNLNVIYAECMKTSSTDPSIFTINPLDLEINSNLTRAYNRGDYISVDFLVNYTRLDIYKGEDLEKLVRILEYEWSVIKRTSQYTSSLLEEILNKMRSKGFKLDEGHHHHHH	not soluble
MSLKKIKRITAYQVDLPLHEGSYNWSGGKTVNIFDSTIVAIETDDGLIGYGECCPLGPFYLPSYAEGVRAGIKELGPHLIGLDATDHSYINMVMDQCLKGHPYVKSPIDIACWDIKGKAANMPISKLLGGTYDEDFVLYRAISQNEPDAMASNVKKYRDEGYRRFQLKVGGSPNEDIERIRSVASKLEDGDKLIADANTGWLAHEALRVIRAVNDIDVYIEQPCQSYEECLSVRQKTTHPFILDESVKNIGVLVRGYHDKAMDAVNIKISKFGGITKAVLARDLCTELGIAMTIEDSWGGDIVTATIAHLAHSTQPKLLFTATDFNSYVTVHIADGAPQRNNGRMKSSGEGHHHHHH	not soluble
MSLKKLTVAALAVTTLLSGSAFAHEAGEFFMRAGSATVRPTEGAGGTLGSLGGFSVTNNTQLGLTFTYMATDNIGVELLAATPFRHKIGTRATGDIATVHHLPPTLMAQWYFGDASSKFRPYVGAGINYTTFFDNGFNDHGKEAGLSDLSLKDSWGAAGQVGVDYLINRDWLVNMSVWYMDIDTTANYKLGGAQQHDSVRLDPWVFMFSAGYRFEGGSHHHHHH	soluble
MSLKKNVYFLLALLLIGLSACDNAPKFKVQGEINGAEDKMLYLEASGLDGIVALDSAKLGSSGSFSFAQKRPESPEFYRLRLDNKVINFAVDSTETVSVKAEINDFATAYRIEGSENNLKIKELVLLQADLQKNVDKLGQNRNIPAGIAQDSLLAMVNNYKNKVKREYIFAAPNMPYAYFALFQSLNGYMIFDPLTNKEDVKCFAAVATSLNNAYPHADRSRNLYNMVIKGMKNTRTPRQQTMEIPEDKIKEASIIDIQLKDLKGNTRSLTDLKGKVVLIDFTVYNNAMSAAHNLALRELYNKYASQGFEIYQISLDGDEHFWKTSADNLPWVCVRDANGAYSSYISLYNVTNLPSVFLVNRNNELSARGENIKDLDEAIKKLLEGHHHHHH	not soluble
MSLKKPLIVQKFGGTSVGSIERMQTVAEHIIKAKNDGNQVVVVVSAMAGETNRLVGLAQQVDSVPNARELDVLLSAGEQVSMALVAMTLHKMGYAARSLTGAQANIVTDNQHNDATIKHIDTRTITELLEQDFIVIVAGFQGINENGDITTLGRGGSDTSAVALAGALNADECQIFTDVDGIYTCDPRIVPSARKLDVIDFPSMEEMARKGAKVLHLPCVQYAWKHAVPLRVLSTFEVNQGSLIKGSAATHAVCGIALQRDMALIRVESESFPSIIKQCQMLGIEVCTTIDEPTHSAFVIKRDAYAKLQLVGADKIRGSEPVSLITKVGIQAGALVAHARQTLAQHGIDVRYVSASEQSSMLMLDPANVDRAANILHETYVTSEIPQEFGLKQTFLGEGHHHHHH	not soluble
MSLKLYYMPAACSLSPHIVANELELDIEFVRVNFKDHKTEGGQDYYDINPNGYIPALDVGNGAMLFEGPAIVQYMADLKPQSGLAPANGTFERYKLQEMLSFLSTEIHKGFIPLLYAKQAGAYLETATPKLEKRYAWIDNLLASQRFLMGENFTVADAYLFALTSWGQASWLKSYYGADIHFDDLLNLRGWYERVKERDAVKQSILEEGLSLSEGHHHHHH	soluble
MSLKMRNNVFVFDSPYCLLIYCILFNHQLHDTIYIYSDNVSLRDINFPGKERYIIKKGNNKTSKIFYYFCFLFRLIINPKLRKLISNRKDYRFLGQDHLFFSKPFLNEFILLEDGLANYRYPHYSRLYKLIIGGHTFGRSTKVNKILLSGMIDIIDPTINDKVEFFDLIAAWEKLNSVQKKEINHIFNYCIEDELVADVMILTQPLSEDGFISENEKIRLYDEIIKEYDDKKIVIRQHPRELTDYSLYFKDVKVNKVKAPVELVVLNSPMIKTAVTLFSGGIFNIPCREKIFKGTSFSPLLSKHFGNISNKFEVKGKKEGHHHHHH	soluble
MSLKNIVFCGLSSRAFSMFIKPLMERFSTHYEITGLLDADPKRFAVCKKKFPELAHVPEFSEDAFDEMMRVSKPDIVIVAGRDDTHVAYIVKSLQWNTDVITEKPMVTTVQDANRVLEAEAKSEGKVTVAFNYRYSPFHRKIKEMILDGKIGRVTSVDLNWYIDTYHGASYFKRWNRSRQFSGGLSVHKSTHHFDLVNWWLGQNPEEVFAYGALNYYGPDSEWNPLPEEDGRFCGTCRVKEKCHYYSRWHPRSSKASIKDDHLEAGDQSSLYTAYRPDACIFDEEIDIEDTYVAAVKYDGGALLSYSIIFSAPYEGYRLTINGTKGRIESNEFHEPSRIPFAFPEQTIEYYPLFESKQTIQVVKNEGGHGGGDPLLLEDLFLGKDPLRRYDILAGAEAGAYSIAVGEGMWRSVAEKKPIGMKELFQMQNEGHHHHHH	soluble
MSLKNLPIGGVWKGKVKLHSNSPAQDYFANITLNTLDPNHIDVFFPEFAHATPRVQLDLHPTGSVNGSNYAQDLTMLDMCLYDGFNGNAISYEIMLKDEGRPAAGRRDGYFSIYRQGGTTTDEGERIDYRVKMYNPETGGQIDVRNNENMVWNSINLKRVRPVVLPGIRYAVMCVPTPLTLAVDKFSVMDKQAGYYMGKLSVIFTPSLPTINEGHHHHHH	soluble
MSLKNQKPLAELLRPSTLEEYFGQNKLIGEQTLLRSLLKSQEIPSLILWGPPGCGKTTLAHIIASSIKQKGTGRFVTLSATSASVSDVREVIKQAQNELRLCKRKTVLFIDEIHRFNKSQQDTFLPHVECGTITLIGATTENPSFQVNSALLSRCRVLVLERLSVEAVGSILRRAVDFLDLRILDSEERHSSEICSEAQVCVEQKALDTLAHLCDGDARAALNGLQLAVQACVLQSSSNHNRSSTVVREQHIKEALQRSHILYDKAGEEHYNCISALHKSMRGSDANAALYWLARMLEGGEDPLYVARRLVRFASEDIGLADPVALSQAVAAFQACHLIGMPECEVILAQCAVYLARAPKSVEVYKAYNNVKMCLRNHKGPLPSVPLHLRNAPTKLMKNLGYAKGYKYNPNYSGPVKQEYLPEELRGVDFFTWTPSEGHHHHHH	not soluble
MSLKNTTHFIVFDIERNFRPYKSDDPSEIVDIGAVKIEASTMKVIGEFSELVKPGARLTRHTTKLTGITKKDLMNVEKFPQIIERFIQFIGEDSIFVTWGKEDYRFLVHDCTLHGVDCPCMEKERRIDLQKFVFQAYEELFEHTPSLQSAVEQLGLTWEGKQHRALADAENTANILLKAYSERDITKRYKRHGELELVENGKLTEKAKKKMRKWVFKEMRKNTERPFAWSTFESSDTWESITERYYISEPTIELLKKHFRTAVRKAERRIRYLAEMEKNAEVKEGHHHHHH	soluble
